Test results from PMC4906247 (2016).

B1: WT hDAPK2 expressed in HEK293T cells (CaM pull-down from lysate) [human] / calcium/calmodulin on Sepharose 4B (Sepharose 4B-CaM) [not stated] (parent complex)
chain 1: MFQASMRSPNMEPFKQQKVEDFYDIGEELGSGQFAIVKKCREKSTGLEYAAKFIKKRQSRASRRGVSREEIEREVSILRQVLHHNVITLHDVYENRTDVVLILELVSGGELFDFLAQKESLSEEEATSFIKQILDGVNYLHTKKIAHFDLKPENIMLLDKNIPIPHIKLIDFGLAHEIEDGVEFKNIFGTPEFVAPEIVNYEPLGLEADMWSIGVITYILLSGASPFLGDTKQETLANITAVSYDFDEEFFSQTSELAKDFIRKLLVKETRKRLTIQEALRHPWITPVDNQQAMVRRESVVNLENFRKQYVRRRWKLSFSIVSLCNHLTRSLMKKVHLRPDEDLRNCESDTEEDIARRKALHPRRRSSTS
chain 2: not shown

Variants of: B1
Assay: CaM pull-down from HEK293T cell lysate, western blot; HEK293T transfected cells; EGTA-mediated elution on Sepharose 4B-CaM; read off a plot

First: chain 1 R57E, chain 1 R60E, chain 1 R63E, chain 1 R64E, chain 1 W315D
Second: chain 1 W315D
The response of the first is lower: ~0.42 relative unit (normalized to W305D) for the first, ~1 relative unit (normalized to W305D) for the second.
